# Test results taken from US20150344570A1 (published 2015).
# Experiments:
# Assay in all cases: SPR (Biacore); KD of H240-Kn033/H240-Hl033/L73-k0 divided by KD of this variant
# FcgRIIaH = target: T1, FcgRIIaH (human, UniProt P12318 34-217)
# T1 construct: extracellular domain; also called FcγRIIa H; FcgRIIa type H; not shown: His tag attached to the C terminus
# T1 sequence (looked up): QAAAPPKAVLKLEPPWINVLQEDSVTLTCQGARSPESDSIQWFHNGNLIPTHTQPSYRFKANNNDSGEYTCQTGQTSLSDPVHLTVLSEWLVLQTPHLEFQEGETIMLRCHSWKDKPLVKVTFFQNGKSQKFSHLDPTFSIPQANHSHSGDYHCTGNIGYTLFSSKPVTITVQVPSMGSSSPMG
# Procedure: (§1) H240-Kn204/H240-Hl211/L73-k0 and H240-Kn205/H240-Hl212/L73-k0 were prepared according to the method of Reference Example 1, by combining H240-Kn204 as one of the H chains and L73-k0 as the L chains with H240-Hl211 as the other H chain, and by combining H240-Kn205 as one of the H chains and L73-k0 as the L chains with H240-Hl212 as the other H chain, and then expressing them. The binding of the prepared variants to FcgRIa, FcgRIIaR, FcgRIIaH, FcgRIIb, FcgRIIIaF, and FcgRIIIaV was measured according to the method of Reference Example 8.
# (§2) “fold 2aR”, “fold 2aH”, “fold 2b”, “fold 3aF”, and “fold 3aV” show the relative binding activity of each variant to FcgRIIaR, FcgRIIaH, FcgRIIb, FcgRIIIaF, and FcgRIIIaV, respectively, when the binding activity of H240-Kn033/H240-Hl033/L73-k0, a variant produced by introducing only alterations that promote formation of a heterodimerized antibody into a native IgG1, is defined as 1. Specifically, they are values obtained by dividing the KD value of H240-Kn033/H240-Hl033/L73-k0 for each FcgR by the KD value of an individual variant for each FcgR.
# (§3) Analysis of interaction between objective antibody and the FcγR was carried out using Biacore T100 (GE Healthcare), Biacore T200, Biacore A100, and Biacore 4000. HBS-EP+ (GE Healthcare) was used as the running buffer, and the measurement temperature was set to 25° C. Chips produced by immobilizing the antigen peptide by the amine coupling method to a Series S sensor Chip CM5 (GE Healthcare), chips produced by allowing preliminarily biotinylated antigen peptides to interact with and immobilize onto a Series S Sensor Chip SA (certified) (GE Healthcare), chips produced by immobilizing Protein L (ACTIGEN, BioVision) to Series S Sencor Chip CM5 (GE Healthcare), or chips produced by immobilizing Protein A/G (Thermo Scientific) to Series S Sencor Chip CM5 (GE Healthcare) were used. Antibodies of interest were captured onto these chips, and allowed to interact to each FcγR diluted with running buffer.
# FcgRIIIaV = target: T2, FcgRIIIaV (human, UniProt P08637 17-208)
# T2 construct: extracellular domain; also called FcγRIIIa V; 3aV; not shown: His tag attached to the C terminus
# T2 sequence (P08637 17-208 F176V limits assumed): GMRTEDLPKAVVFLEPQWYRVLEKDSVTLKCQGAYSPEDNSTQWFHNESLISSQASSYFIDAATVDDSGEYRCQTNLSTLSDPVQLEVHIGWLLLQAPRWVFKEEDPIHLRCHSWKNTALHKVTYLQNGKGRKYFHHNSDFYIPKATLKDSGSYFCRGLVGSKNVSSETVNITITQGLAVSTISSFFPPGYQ
# Procedure: as §1, §2, §3
# FcgRIIb = target: T3, FcgRIIb (human, UniProt P31994 43-217)
# T3 construct: extracellular domain; also called FcγRIIb; 2b; not shown: His tag attached to the C terminus
# T3 sequence (looked up): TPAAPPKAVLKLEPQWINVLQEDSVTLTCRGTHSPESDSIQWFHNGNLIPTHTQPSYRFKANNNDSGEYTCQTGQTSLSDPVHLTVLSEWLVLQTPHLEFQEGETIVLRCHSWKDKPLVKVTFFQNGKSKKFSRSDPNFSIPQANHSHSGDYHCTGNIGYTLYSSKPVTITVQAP
# Procedure: as §1, §2, §3
# FcgRIIaR = target: T4, FcgRIIaR (human, UniProt P12318 34-217)
# T4 construct: extracellular domain; also called FcγRIIa R; FcgRIIa type R; not shown: His tag attached to the C terminus
# T4 sequence (looked up): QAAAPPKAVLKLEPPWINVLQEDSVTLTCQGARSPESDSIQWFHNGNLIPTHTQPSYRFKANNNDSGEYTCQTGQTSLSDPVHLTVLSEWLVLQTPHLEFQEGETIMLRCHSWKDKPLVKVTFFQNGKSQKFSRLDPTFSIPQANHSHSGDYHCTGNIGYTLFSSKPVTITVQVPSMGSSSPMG
# Procedure: as §1, §2, §3
# FcgRIIIaF = target: T5, FcgRIIIaF (human, UniProt P08637 17-208)
# T5 construct: extracellular domain; also called FcγRIIIa F; 3aF; not shown: His tag attached to the C terminus
# T5 sequence (P08637 17-208): as the sequence (P08637 17-208 F176V limits assumed) above, with V160F counted along it
# Procedure: as §1, §2, §3
Binder,fold 2aH (FcgRIIaH),fold 3aV (FcgRIIIaV),fold 2b (FcgRIIb),fold 2aR (FcgRIIaR),fold 3aF (FcgRIIIaF)
"H240-Kn120/H240-Hl068/L73-k0 (antibody, human IgG1, kappa, Anti-epiregulin heterodimerized IgG1, knobs-into-holes) heavy 1: QDQLVQSGAEVKKPGASVKVSCKASGFNIKDTYIQWVRQAPGQGLEWMGRIDPLRKQTKYREKFEGRVTITADTSTNTAYMELSSLRSEDTAVYYCVRSGREFDYWGQGTLVTVSSASTKGPSVFPLAPSSKSTSGGTAALGCLVKDYFPEPVTVSWNSGALTSGVHTFPAVLQSSGLYSLSSVVTVPSSSLGTQTYICNVNHKPSNTKVDKKVEPKSCDKTHTCPPCPAPEYYWGPMVFLFPPKPKDTLMISRTPEVTCVVVDVSDEDPEVKFNWYVDGVEVHNAKTKPREEQYNATYRVVSVLTVLHQDWLNGKEYKCKVSNKDLPAPIEKTISKAKGQPREPQVCTLPPSRDELTKNQVSLWCLVKGFYPSDIAVEWESNGQPENNYKTTPPVLDSDGSFFLYSKLTVDKSRWQQGNVFSCSVMHEALHNHYTQKSLSLSP heavy 2: QDQLVQSGAEVKKPGASVKVSCKASGFNIKDTYIQWVRQAPGQGLEWMGRIDPLRKQTKYREKFEGRVTITADTSTNTAYMELSSLRSEDTAVYYCVRSGREFDYWGQGTLVTVSSASTKGPSVFPLAPSSKSTSGGTAALGCLVKDYFPEPVTVSWNSGALTSGVHTFPAVLQSSGLYSLSSVVTVPSSSLGTQTYICNVNHKPSNTKVDKKVEPKSCDKTHTCPPCPAPELLGGPSVFLFPPKPKDTLMISRTPEVTCVVVDVSHEEPEVKFNWYVDGVEVHNAKTKPREEQYNSTYRVVSVLTVLHQDWLNGKEYKCKVSNDALPKPIEETISKAKGQPREPQVYTLPPSRCELTKNQVSLSCAVKGFYPSDIAVEWESNGQPENNYKTTPPVLDSDGSFFLVSKLTVDKSRWQQGNVFSCSVMHEALHNHYTQKSLSLSP light: DIQMTQSPSSLSASVGDRVTITCRASQDIHKYIAWYQQKPGQAPRLLIQYTSTLQPGVPSRFSGSGSGTDYTFTISSLQPEDIATYYCLQYEQLRTFGGGTKVEIKRTVAAPSVFIFPPSDEQLKSGTASVVCLLNNFYPREAKVQWKVDNALQSGNSQESVTEQDSKDSTYSLSSTLTLSKADYEKHKVYACEVTHQGLSSPVTKSFNRGEC",11.8 fold,146 fold,22 fold,32.2 fold,121 fold
"H240-Kn184/H240-Hl068/L73-k0 (antibody, human IgG1, kappa, Anti-epiregulin heterodimerized IgG1, knobs-into-holes) heavy 1: QDQLVQSGAEVKKPGASVKVSCKASGFNIKDTYIQWVRQAPGQGLEWMGRIDPLRKQTKYREKFEGRVTITADTSTNTAYMELSSLRSEDTAVYYCVRSGREFDYWGQGTLVTVSSASTKGPSVFPLAPSSKSTSGGTAALGCLVKDYFPEPVTVSWNSGALTSGVHTFPAVLQSSGLYSLSSVVTVPSSSLGTQTYICNVNHKPSNTKVDKKVEPKSCDKTHTCPPCPAPEEYWGPMVFLFPPKPKDTLMISRTPEVTCVVVDVSDEDPEVKFNWYVDGVEVHNAKTKPREEQYNATYRVVSVLTVLHQDWLNGKEYKCKVSNKDLPAPIEKTISKAKGQPREPQVCTLPPSRDELTKNQVSLWCLVKGFYPSDIAVEWESNGQPENNYKTTPPVLDSDGSFFLYSKLTVDKSRWQQGNVFSCSVMHEALHNHYTQKSLSLSP heavy 2: QDQLVQSGAEVKKPGASVKVSCKASGFNIKDTYIQWVRQAPGQGLEWMGRIDPLRKQTKYREKFEGRVTITADTSTNTAYMELSSLRSEDTAVYYCVRSGREFDYWGQGTLVTVSSASTKGPSVFPLAPSSKSTSGGTAALGCLVKDYFPEPVTVSWNSGALTSGVHTFPAVLQSSGLYSLSSVVTVPSSSLGTQTYICNVNHKPSNTKVDKKVEPKSCDKTHTCPPCPAPELLGGPSVFLFPPKPKDTLMISRTPEVTCVVVDVSHEEPEVKFNWYVDGVEVHNAKTKPREEQYNSTYRVVSVLTVLHQDWLNGKEYKCKVSNDALPKPIEETISKAKGQPREPQVYTLPPSRCELTKNQVSLSCAVKGFYPSDIAVEWESNGQPENNYKTTPPVLDSDGSFFLVSKLTVDKSRWQQGNVFSCSVMHEALHNHYTQKSLSLSP light: DIQMTQSPSSLSASVGDRVTITCRASQDIHKYIAWYQQKPGQAPRLLIQYTSTLQPGVPSRFSGSGSGTDYTFTISSLQPEDIATYYCLQYEQLRTFGGGTKVEIKRTVAAPSVFIFPPSDEQLKSGTASVVCLLNNFYPREAKVQWKVDNALQSGNSQESVTEQDSKDSTYSLSSTLTLSKADYEKHKVYACEVTHQGLSSPVTKSFNRGEC",7.4 fold,141 fold,22 fold,27.4 fold,132 fold
"H240-Kn189/H240-Hl068/L73-k0 (antibody, human IgG1, kappa, Anti-epiregulin heterodimerized IgG1, knobs-into-holes) heavy 1: QDQLVQSGAEVKKPGASVKVSCKASGFNIKDTYIQWVRQAPGQGLEWMGRIDPLRKQTKYREKFEGRVTITADTSTNTAYMELSSLRSEDTAVYYCVRSGREFDYWGQGTLVTVSSASTKGPSVFPLAPSSKSTSGGTAALGCLVKDYFPEPVTVSWNSGALTSGVHTFPAVLQSSGLYSLSSVVTVPSSSLGTQTYICNVNHKPSNTKVDKKVEPKSCDKTHTCPPCPAPESYWGPMVFLFPPKPKDTLMISRTPEVTCVVVDVSDEDPEVKFNWYVDGVEVHNAKTKPREEQYNATYRVVSVLTVLHQDWLNGKEYKCKVSNKDLPAPIEKTISKAKGQPREPQVCTLPPSRDELTKNQVSLWCLVKGFYPSDIAVEWESNGQPENNYKTTPPVLDSDGSFFLYSKLTVDKSRWQQGNVFSCSVMHEALHNHYTQKSLSLSP heavy 2: QDQLVQSGAEVKKPGASVKVSCKASGFNIKDTYIQWVRQAPGQGLEWMGRIDPLRKQTKYREKFEGRVTITADTSTNTAYMELSSLRSEDTAVYYCVRSGREFDYWGQGTLVTVSSASTKGPSVFPLAPSSKSTSGGTAALGCLVKDYFPEPVTVSWNSGALTSGVHTFPAVLQSSGLYSLSSVVTVPSSSLGTQTYICNVNHKPSNTKVDKKVEPKSCDKTHTCPPCPAPELLGGPSVFLFPPKPKDTLMISRTPEVTCVVVDVSHEEPEVKFNWYVDGVEVHNAKTKPREEQYNSTYRVVSVLTVLHQDWLNGKEYKCKVSNDALPKPIEETISKAKGQPREPQVYTLPPSRCELTKNQVSLSCAVKGFYPSDIAVEWESNGQPENNYKTTPPVLDSDGSFFLVSKLTVDKSRWQQGNVFSCSVMHEALHNHYTQKSLSLSP light: DIQMTQSPSSLSASVGDRVTITCRASQDIHKYIAWYQQKPGQAPRLLIQYTSTLQPGVPSRFSGSGSGTDYTFTISSLQPEDIATYYCLQYEQLRTFGGGTKVEIKRTVAAPSVFIFPPSDEQLKSGTASVVCLLNNFYPREAKVQWKVDNALQSGNSQESVTEQDSKDSTYSLSSTLTLSKADYEKHKVYACEVTHQGLSSPVTKSFNRGEC",10.8 fold,92.3 fold,22 fold,32.2 fold,90.6 fold
